Source: US12338268B2, “Compositions and methods for treating protein aggregation-associated diseases” (The Board of Trustees of the Leland Stanford Junior …, priority 2019, dated 2025)
Entries after “also recorded” stand apart in the source; their conditions may differ.

Tests used:
[1] = target: T1, Aβ40 (Homo sapiens, UniProt P05067); experiment: Transmission electron microscopy of Aβ40 reaction endpoint; type: biochemical; details: reaction endpoint at 20 h, equimolar NAC
T1 construct: Aβ40 peptide was expressed and purified as described previously; made in house; host or cells: E. coli BL21 (DE3)
Procedure: After 20 h, samples were taken from the Thioflavin T plate and fixed on carbon coated copper grids, made in house. The samples were negative stained with 2% (w/v) uranyl acetate. The samples were imaged on a JEOL 1400 TEM at the Astbury structural biology laboratory, University of Leeds.

[2] = target: T2, AtxQ78 (Homo sapiens, UniProt P54252, INS305QQQQQQQQQQQQQQQQQQQQQQQQQQQQQQQQQQQQQQQQQQQQQQQQQQQQQQQQQQQQQQQQ); experiment: Chemical crosslinking (BS3) and mass spectrometry of NAC-AtxQ78 complexes; type: binding; details: NAC and AtxQ78 1:1, BS3 crosslinker, LC-MS
T2 construct: full-length Ataxin-3 harboring a stretch of 78 glutamines (AtxQ78); made in house
T2 sequence (P54252 with tags, fused parts or gaps with the stated changes): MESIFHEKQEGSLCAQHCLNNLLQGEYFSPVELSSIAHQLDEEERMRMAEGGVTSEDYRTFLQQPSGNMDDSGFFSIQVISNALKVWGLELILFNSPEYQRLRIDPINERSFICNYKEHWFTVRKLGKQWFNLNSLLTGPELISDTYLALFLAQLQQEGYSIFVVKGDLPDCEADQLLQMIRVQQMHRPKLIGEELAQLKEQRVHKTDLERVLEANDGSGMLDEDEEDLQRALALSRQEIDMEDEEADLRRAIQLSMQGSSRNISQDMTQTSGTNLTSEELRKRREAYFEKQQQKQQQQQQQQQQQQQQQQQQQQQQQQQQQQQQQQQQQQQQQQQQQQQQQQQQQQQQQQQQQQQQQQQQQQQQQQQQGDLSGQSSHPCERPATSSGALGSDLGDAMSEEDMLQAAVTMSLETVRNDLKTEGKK
Procedure: For crosslinking AtxQ78 was buffer exchanged into 10 mM sodium phosphate (pH 7.2) and added to NAC at a 1:1 ratio (20 μM NAC+20 μM AtxQ78). A 1:1 mixture of BS^3-d^0 and BS^3-d^4 was added to the proteins at 20× and 50× molar excess and the reaction allowed to proceed at room temperature for 1 hour before quenching with the addition of 50 mM Tris-Cl (pH 7.5). Samples were diluted with 2× loading buffer and separated on Tris-tricine gels followed by staining with InstantBlue (Expedeon).
Gel pieces containing the crosslinked complexes were washed with 25 mM ammonium bicarbonate (pH 7.8) for 1 h with shaking. The solution was removed and the pieces destained three times with 25 mM ammonium bicarbonate in 60% acetonitrile. Gel pieces were dehydrated with 100% acetonitrile for 10 min and left to air-dry in a laminar flowhood for 1 h. Rehydration of the gel pieces was achieved by adding 0.1 mg/ml trypsin solution and incubating the samples on ice for 30 min. Excess trypsin was removed and the samples were incubated at 37° C. and 1000 rpm overnight. Peptides were extracted from the gel using 3 washes with 60% acetonitrile/5% formic acid. The extracts were pooled and concentrated using a SpeedVac before being analyzed using a nanoACQUITY LC-system coupled to a Synapt HDMS G2Si mass spectrometer. […]

[3] = target: GdmCl-denatured firefly luciferase (Photinus pyralis, UniProt P08659); experiment: Luciferase refolding assay; type: biochemical
GdmCl-denatured firefly luciferase, sequence (P08659 whole entry): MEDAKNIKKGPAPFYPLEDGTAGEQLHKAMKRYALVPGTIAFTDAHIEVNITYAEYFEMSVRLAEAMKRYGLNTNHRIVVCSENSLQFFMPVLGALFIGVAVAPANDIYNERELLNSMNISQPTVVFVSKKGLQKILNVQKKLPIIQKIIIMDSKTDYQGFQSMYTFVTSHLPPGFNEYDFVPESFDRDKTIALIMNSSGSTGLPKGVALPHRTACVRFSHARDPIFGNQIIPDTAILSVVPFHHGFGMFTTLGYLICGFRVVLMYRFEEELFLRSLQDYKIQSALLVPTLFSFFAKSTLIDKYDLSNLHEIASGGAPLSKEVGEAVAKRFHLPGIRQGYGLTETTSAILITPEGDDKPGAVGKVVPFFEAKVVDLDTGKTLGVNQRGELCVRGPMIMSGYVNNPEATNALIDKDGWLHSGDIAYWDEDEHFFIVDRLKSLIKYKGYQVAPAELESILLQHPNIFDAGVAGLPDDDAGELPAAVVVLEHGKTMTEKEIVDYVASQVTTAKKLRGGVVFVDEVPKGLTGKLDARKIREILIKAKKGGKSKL

[4] = target: T1, Aβ40; experiment: Thioflavin T fluorescence assay of Aβ40 aggregation; type: biochemical; details: equimolar NAC variant and Aβ40 (32 μM FIG. 4C; 18 μM FIG. 12C), 37° C., 20 h
Procedure: Lyophilized Aβ40 was resuspended at 320 μM in 20 mM sodium phosphate pH 7.4, 0.2 mM EDTA, 0.01% (w/v) sodium azide and stored on ice. The NAC proteins were diluted to 100 μM in storage buffer (20 mM sodium phosphate pH 7.5, 25 mM NaCl, 6 mM MgCl2, 2 mM β-mercaptoethanol, 5% (v/v) glycerol) and buffer exchanged into 20 mM sodium phosphate pH 7.4, 0.2 mM EDTA, 0.01% (w/v) sodium azide, 1× complete mini protease inhibitor, EDTA free (Roche) by means of ZebaSpin 7 kDa MWCO spin columns (Thermo Scientific). Samples were prepared that contained equimolar concentrations of Aβ40 and NAC variants. Thioflavin T was added to a final concentration of 10 μM. The samples were transferred to a 96 well half-area clear bottom microplate (Corning GmbH, Wiesbaden, Germany), with 95 μL of sample in each well. The fluorescence (excitation: 440 nm, emission: 480 nm) was measured using a BMG Omega plate reader (BMG Labtech) incubating samples at 37° C., quiescently.

[5] = target: T3, full-length Ataxin-3 (AtxQ78) (Homo sapiens, UniProt P54252, INS305QQQQQQQQQQQQQQQQQQQQQQQQQQQQQQQQQQQQQQQQQQQQQQQQQQQQQQQQQQQQQQQQ); experiment: Filter trap aggregation assay of AtxQ78; type: biochemical; details: equimolar (1×) NAC, 37° C.
T3 construct: full-length Ataxin-3 harboring a stretch of 78 glutamines (AtxQ78); made in house
T3 sequence (P54252 with tags, fused parts or gaps with the stated changes): as the sequence (P54252 with tags, fused parts or gaps with the stated changes) above
Procedure: (§1) Mutant Huntingtin and PolyQ51 aggregation reactions were performed at concentration 3 μM of mHttQ51, 0.044 Units/μl acTEV protease (Invitrogen, Carlsbad, CA, USA), and respective concentrations of Ovalbumin (Sigma) or purified NAC chaperone variants. Aggregation was conducted in TEV reaction buffer (Invitrogen) and incubated at 30° C. AtxQ78 was buffer exchanged into TEV reaction buffer using 7K MWCO Zeba Spin Desalting Columns (Thermo Fisher) to initiate aggregation. AtxQ78 aggregation reactions were performed at 30 μM of Ataxin-3 in reaction buffer (20 mM sodium phosphate pH 7.5, 25 mM NaCl, 6 mM MgCl2, 2 mM DTT, 5% (v/v) glycerol) and incubated at 37° C. Samples at varied time-points were then taken and combined in a 1:1 ratio with a 4% (w/v) SDS, 100 mM DTT solution, boiled for 5 min at 95° C., and stored at −20° C. Samples were then filtered through a 0.22 μm cellulose acetate membrane (Whatman) and washed with 0.1% (w/v) SDS. Membrane was probed using an S-tag antibody (Abcam) for mHttQ51 and PolyQ51, and with a His-tag antibody (Abcam) for AtxQ78.

[6] = test system: PolyQ51; experiment: In vitro filter trap aggregation assay of PolyQ51; type: biochemical; details: 5× molar excess, SDS-insoluble aggregates
Procedure: as §1

[7] = target: T4, mutant Huntingtin exon 1 (mHttQ51) (Homo sapiens, UniProt P42858, INS38QQQQQQQQQQQQQQQQQQQQQQQQQQQQQQQ); experiment: In vitro filter trap aggregation assay of mutant Huntingtin exon 1; type: biochemical
T4 construct: mutant Huntingtin exon 1 containing a pathogenic stretch of 51 glutamines (mHttQ51); GST (N, cleaved yes); made in house; host or cells: E. coli Rosetta 2(DE3) pLysS
T4 sequence (P42858 with tags, fused parts or gaps with the stated changes limits assumed): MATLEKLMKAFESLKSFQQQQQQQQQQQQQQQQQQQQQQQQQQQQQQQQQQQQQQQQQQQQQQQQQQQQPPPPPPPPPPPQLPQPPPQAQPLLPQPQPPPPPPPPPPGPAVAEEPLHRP
Procedure: as §1

[8] = test system: HttQ44-BodipyTMR; experiment: Fluorescence quenching assay of HttQ44-BodipyTMR aggregation; type: biochemical; details: titrations of chaperones, 24-hour time period
HttQ44-BodipyTMR, sequence (P42858 with tags, fused parts or gaps with the stated changes limits assumed): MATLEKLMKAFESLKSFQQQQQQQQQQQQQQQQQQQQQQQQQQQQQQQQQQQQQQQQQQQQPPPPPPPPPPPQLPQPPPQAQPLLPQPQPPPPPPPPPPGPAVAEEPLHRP
Excerpt: FIGS. 17A-17B show a fluorescence quenching assay as a reporter for early events in Htt aggregation.
A fluorescence quenching assay was used to monitor aggregation of HttQ44-BodipyTMR with titrations of various chaperones over a 24-hour time period.

B1: human NAC: purified recombinant human nascent polypeptide-associated complex (αNAC and βNAC 1:1) (protein)
chain 1: MTGSTETRQKEVKEPQVDVSDDSDNEAVEQELTEEQRRVAEAAGLGDHIDKQAKQSRSEKKARKLFSKLGLKQVTGVSRVCIRKSKNILFVINKPDVFKSPGSDTYIIFGEAKIEDLTQHAQMSAIENLKPTREAPQLKTVEEDENEDVEEDSTGIEEKDIELVISQANTTRNKAIRALKEADNDIVNAIMSLTM
chain 2: MMDSKAIAERIKKLQAQQEHVRIGGKGTPRRKKKVIHKTAAADDKKLQSNLKKLSVTNIPGIEEVNMIKDDGTVIHFNNPKVQTSVPANTFSVTGSADNKQITEMLPGILNQLGPESLTHLKKLANNVTKLGPDGKGEDEDVPELVGDFDAASKNETKADEQ
- Aβ40 fibril formation (electron microscopy) [1]: completely suppressed Aβ40 aggregation and fibril formation
- identified intermolecular crosslinks to the C-terminal region of AtxQ78 close to the expanded PolyQ stretch [2]: 11 out of 18
- luciferase refolding ([3]; NAC added to the Hsp70/Hsp40 system (3.2 μM/0.8 μM), no preincubation): did not enhance luciferase refolding
- luciferase refolding ([3]; NAC alone, absence of Hsp70/Hsp40, luciferase 0.02 μM, equimolar NAC): had no effect on luciferase refolding
- Aβ40 aggregation (ThT fluorescence) [4]: completely suppressed Aβ40 aggregation
- AtxQ78 aggregation [5]: delayed the aggregation of AtxQ78
- accumulation of PolyQ51 aggregates [6]: strongly delayed the accumulation of PolyQ51 aggregates
- mHttQ51 aggregation ([7]; 5× molar excess, 3 μM mHttQ51, filter trap, SDS-insoluble aggregates): effectively suppressed aggregation

B2: ApiCCT1-bNAC: fusion protein comprising the apical domain of CCT1 fused with the bNAC N-terminal sequence at its C-terminus (protein)
chain: MGVPGYALNCTVASQAMPKRIAGGNVKIACLDLNLQKARMAMGVQINIDDPEQLEQIRKREAGIVLERVKKIIDAGAQVVLTTKGIDDLCLKEFVEAKIMGVRRCKKEDLRRIARATGATLVSSMSNLEGEETFESSYLGLCDEVVQAKFSDDECILIKGTSKAAAAALEGGSGGSMKETIMNQEKLAKLQAQVRIGGKGTARRKKKVVHRTAT
- Htt aggregation over time (fluorescence quenching) [8]: better and more stably suppresses Htt aggregation overtime compared to the ApiCCT1 and bNAC N-terminal domain individually
- HttQ51 aggregation, titration ([7]; ApiCCT1-bNAC from 15 μM to 0.03 μM, Htt 3 μM, filter trap): can suppress HttQ51 aggregation at sub-molar concentrations
- polyQ aggregation of huntingtin exon1 ([7]; system with purified components, listed as fused protein): works even more potently to inhibit huntingtin exon1 aggregation; also recorded: can suppress aggregation even at sub-molar ratios
